# According to patent US20050074865A1:
# Target: recombinant human TNFα (RDI) (human) (UniProt P01375)
# Assay: cell-based or functional assay
# recombinant human TNFα (RDI) (human), sequence (P01375 77-233 limits assumed): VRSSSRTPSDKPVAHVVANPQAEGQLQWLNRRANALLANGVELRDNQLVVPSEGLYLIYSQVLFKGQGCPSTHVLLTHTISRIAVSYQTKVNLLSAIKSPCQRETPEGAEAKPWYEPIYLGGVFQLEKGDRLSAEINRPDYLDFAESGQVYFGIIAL
binder,measurement,value
"MMP7 (enzyme, UniProt P09237 95-267, looked up, species assumed) Matrilysin: YSLFPNSPKWTSKVVTYRIVSYTRDLPHITVDRLVSKALNMWGKEIPLHFRKVVWGTADIMIGFARGAHGDSYPFDGPGNTLAHAFAPGTGLGGDAHFDEDERWTDGSSLGINFLYAATHELGHSLGMGHSSDPNAVMYPTYGNGDPQNFKLSQDDIKGIQKLYGKRSNSRKK",L929 cell survival at the dilution equivalent to ~600 pg/ml TNFα (reference standard: 10% survival),40 % survival
same,"log reduction in TNFα activity at the 50% survival level, L929 cytotoxicity bioassay after overnight digestion",1.22 log
